Molecular target: Myc expressed from a co-transfected Myc expressing plasmid (pSpMyc)
Test: cell-based or functional assay

- Myc-dependent transcriptional activity (pM4luc luciferase reporter, NIH-3T3 cells): 4 fold
Substance: cdr2 expressed from a co-transfected cdr2 expressing plasmid

From patent US20030004092A1
